According to patent US20260207718A1, “METHODS FOR TREATING LATE ONSET POMPE DISEASE IN PEDIATRIC PATIENTS” (Amicus Therapeutics, Inc., priority 2022, published 2026):
Entries after “also recorded” stand apart in the source; their conditions may differ. Read-outs that look alike come from different tables or passages of the source. Marks after values point to notes of the source that are not given here.

Experiments:
CIMPR [1] = target: T1, CIMPR (Homo sapiens, UniProt P11717); experiment: CIMPR plate binding assay
Experimental: In addition to having a greater percentage of rhGAA that can bind to the CIMPR, it is important to understand the quality of that interaction. LUMIZYME® and ATB200 receptor binding was determined using a CIMPR plate binding assay. Briefly, CIMPR-coated plates were used to capture GAA. Varying concentrations of rhGAA were applied to the immobilized receptor and unbound rhGAA was washed off. The amount of remaining rhGAA was determined by GAA activity. […] For LUMIZYME®, there is on average only 10% of molecules having a bis-phosphorylated N-glycan. In contrast, on average every rhGAA molecule in ATB200 has at least one bis-phosphorylated N-glycan.
N-glycan analysis via MALDI-TOF mass spectrometry confirmed that on average each ATB200 molecule contains at least one natural bis-M6P N-glycan structure.

[2] = tested on: pediatric subjects with late-onset Pompe disease; experiment: ATB200-04 trial: safety in pediatric subjects with LOPD; type: in vivo, human; conditions: ERT-experienced subject, Cohort 2
Text: This study includes subjects with Pompe disease except classic IOPD.
Safety assessments include monitoring of adverse events (AEs), clinical laboratory tests (chemistry, hematology, and urinalysis), physical examinations, vital signs, 12-lead electrocardiogram (ECGs), and detection of cipaglucosidase alfa antibodies.

[3] = Thermostability assay using SYPRO Orange; type: physicochemical
Experimental: The stability of ATB200 in acidic or neutral pH buffers was evaluated in a thermostability assay using SYPRO Orange, as the fluorescence of the dye increases when proteins denature. […] As summarized in Table 10, the addition of miglustat increased the melting temperature (Tm) of ATB200 by nearly 10° C.

[4] = Case: pediatric atypical IOPD patient, PK of ATB200 and AT2221 after 1 year; type: in vivo, human
[5] = tested on: normal and Pompe fibroblast cell lines; experiment: Cellular uptake of rhGAA in fibroblasts; type: cell-based
Experimental: The relative cellular uptake of ATB200 and LUMIZYME® rhGAA were compared using normal and Pompe fibroblast cell lines. Comparisons involved 5-100 nM of ATB200 according to the disclosure with 10-500 nM conventional rhGAA product LUMIZYME®. After 16-hr incubation, external rhGAA was inactivated with TRIS base and cells were washed 3-times with PBS prior to harvest. Internalized GAA measured by 4MU-α-Glucoside hydrolysis and was graphed relative to total cellular protein and the results appear in FIGS. 11A-11C.
ATB200 was also shown to be efficiently internalized into cells. […] ATB200 saturates cellular receptors at about 20 nM, while about 250 nM of LUMIZYME® is needed to saturate cellular receptors.

Gaa KO mice = experiment: Single fiber analysis (LAMP1/LC3) of muscle fibers from Gaa KO mice; type: in vivo
Text: FIG. 17 depicts co-immunofluorescent staining of LAMP1 (green) (see for example, “B”) and LC3 (red) (see, for example, “A”) in single fibers isolated from the white gastrocnemius of Gaa KO mice treated with a vehicle, alglucosidase alfa, or ATB200. “C” depicts clearance of autophagic debris and absence of enlarged lysosome. A minimum of 30 fibers were examined from each animal.
As a result, a significant portion of muscle fibers analyzed (36-60%) from ATB200-treated mice appeared normal or near-normal.

CIMPR [6] = target: T1, CIMPR; experiment: CIMPR affinity chromatography (bound vs unbound rhGAA by GAA activity); type: binding
Text: Multiple batches of the rhGAA according to the disclosure were produced in shake flasks and in perfusion bioreactors using CHO cell line GA-ATB200, the product of which is referred to as “ATB200.” Weak anion exchange (“WAX”) liquid chromatography was used to fractionate ATB200 rhGAA according to terminal phosphate and sialic acid. Elution profiles were generated by eluting the ERT with increasing amount of salt. The profiles were monitored by UV (A280 nm).
To evaluate the ability of the conventional rhGAAs in MYOZYME® and LUMIZYME® to interact with the CIMPR, the two conventional rhGAA preparations were injected onto a CIMPR affinity column (which binds rhGAA having M6P groups) and the flow through collected. The bound material was eluted with a free M6 gradient. Fractions were collected in 96-well plate and GAA activity assayed by 4MU-α-glucosidase substrate. The relative amounts of unbound (flow through) and bound (M6P eluted) rhGAA were determined based on GAA activity and reported as the fraction of total enzyme. […] Indeed, only 27% of the rhGAA in MYOZYME® and 22% of the rhGAA in LUMIZYME® contained M6P that can be productive to target it to the CIMPR on muscle cells.

[7] = ATB200-04 trial: population PK exposure matching of adolescents to adults; type: in vivo, human; design: AUC0-24, Mean / AUC0-24, Median / AUC0-24, P5 / AUC0-24, P95 / AUC0-24, Geo Mean: unit not given beside the values; conditions: for AUC0-24, Geo Mean / AUC0-24, Mean / AUC0-24, Median / AUC0-24, P5 / AUC0-24, P95: predicted
Text: The ATB200-04 trial seeks to evaluate the safety and tolerability of cipaglucosidase alfa/miglustat co-administration.
Subjects have scheduled PK assessments at Day 1, Week 26, and Week 52 for plasma total GAA protein and miglustat.
Population PK parameters include clearance (CL) and volume of distribution (V), estimated from total GAA protein concentrations and miglustat concentrations in plasma.
Methods for Exposure Matching. Pediatric PK data from both clinical trials and expanded access programs were used for exposure matching to adult PK data. […] The previous base population PK models from cipaglucosidase alfa-atga and miglustat were rerun with the updated dataset. To account for longitudinal changes in body size for pediatric patients, the time-varying body weight was used to estimate the effects of body size on PK parameters in the population PK models. The effect of age at baseline on clearance was also evaluated in the PK models. Individual AUC0-24 and Cmax of cipaglucosidase alfa and miglustat were predicted from the PK empirical Bayes estimates (EBEs). The time-varying body weight and baseline age in pediatrics were used in the exposure prediction. PK exposures (AUC0-24 and Cmax) were predicted for each PK visit during the study; Day 1-baseline, Week 26, and Week 52. Additionally, there were unscheduled PK visits for some subjects.
Results for Adolescent Subjects. […] The dose may have been adjusted at a later visit for exposure matching. It should be noted however, that in the early stage of the study, all subjects were started at 20 mg/kg to evaluate safety.

[8] = adolescent Subject 2, 20 mg/kg, Week 52, 83.8 kg
[9] = adolescent Subject 3, 25 mg/kg, Week 52, 64.6 kg
[10] = adolescent Subject 4, 25 mg/kg, Week 64, 53.3 kg
[11] = adolescent Subject 5, 25 mg/kg, Week 52, 43.7 kg
[12] = adolescent Subject 6, 25 mg/kg, Week 52, 36.5 kg
[13] = adolescent Subject 7, 25 mg/kg, Week 52, 60.3 kg
[14] = adolescent Subject 8, 25 mg/kg, Week 72, 38.5 kg

T1 sequence (P11717 41-2491, species assumed): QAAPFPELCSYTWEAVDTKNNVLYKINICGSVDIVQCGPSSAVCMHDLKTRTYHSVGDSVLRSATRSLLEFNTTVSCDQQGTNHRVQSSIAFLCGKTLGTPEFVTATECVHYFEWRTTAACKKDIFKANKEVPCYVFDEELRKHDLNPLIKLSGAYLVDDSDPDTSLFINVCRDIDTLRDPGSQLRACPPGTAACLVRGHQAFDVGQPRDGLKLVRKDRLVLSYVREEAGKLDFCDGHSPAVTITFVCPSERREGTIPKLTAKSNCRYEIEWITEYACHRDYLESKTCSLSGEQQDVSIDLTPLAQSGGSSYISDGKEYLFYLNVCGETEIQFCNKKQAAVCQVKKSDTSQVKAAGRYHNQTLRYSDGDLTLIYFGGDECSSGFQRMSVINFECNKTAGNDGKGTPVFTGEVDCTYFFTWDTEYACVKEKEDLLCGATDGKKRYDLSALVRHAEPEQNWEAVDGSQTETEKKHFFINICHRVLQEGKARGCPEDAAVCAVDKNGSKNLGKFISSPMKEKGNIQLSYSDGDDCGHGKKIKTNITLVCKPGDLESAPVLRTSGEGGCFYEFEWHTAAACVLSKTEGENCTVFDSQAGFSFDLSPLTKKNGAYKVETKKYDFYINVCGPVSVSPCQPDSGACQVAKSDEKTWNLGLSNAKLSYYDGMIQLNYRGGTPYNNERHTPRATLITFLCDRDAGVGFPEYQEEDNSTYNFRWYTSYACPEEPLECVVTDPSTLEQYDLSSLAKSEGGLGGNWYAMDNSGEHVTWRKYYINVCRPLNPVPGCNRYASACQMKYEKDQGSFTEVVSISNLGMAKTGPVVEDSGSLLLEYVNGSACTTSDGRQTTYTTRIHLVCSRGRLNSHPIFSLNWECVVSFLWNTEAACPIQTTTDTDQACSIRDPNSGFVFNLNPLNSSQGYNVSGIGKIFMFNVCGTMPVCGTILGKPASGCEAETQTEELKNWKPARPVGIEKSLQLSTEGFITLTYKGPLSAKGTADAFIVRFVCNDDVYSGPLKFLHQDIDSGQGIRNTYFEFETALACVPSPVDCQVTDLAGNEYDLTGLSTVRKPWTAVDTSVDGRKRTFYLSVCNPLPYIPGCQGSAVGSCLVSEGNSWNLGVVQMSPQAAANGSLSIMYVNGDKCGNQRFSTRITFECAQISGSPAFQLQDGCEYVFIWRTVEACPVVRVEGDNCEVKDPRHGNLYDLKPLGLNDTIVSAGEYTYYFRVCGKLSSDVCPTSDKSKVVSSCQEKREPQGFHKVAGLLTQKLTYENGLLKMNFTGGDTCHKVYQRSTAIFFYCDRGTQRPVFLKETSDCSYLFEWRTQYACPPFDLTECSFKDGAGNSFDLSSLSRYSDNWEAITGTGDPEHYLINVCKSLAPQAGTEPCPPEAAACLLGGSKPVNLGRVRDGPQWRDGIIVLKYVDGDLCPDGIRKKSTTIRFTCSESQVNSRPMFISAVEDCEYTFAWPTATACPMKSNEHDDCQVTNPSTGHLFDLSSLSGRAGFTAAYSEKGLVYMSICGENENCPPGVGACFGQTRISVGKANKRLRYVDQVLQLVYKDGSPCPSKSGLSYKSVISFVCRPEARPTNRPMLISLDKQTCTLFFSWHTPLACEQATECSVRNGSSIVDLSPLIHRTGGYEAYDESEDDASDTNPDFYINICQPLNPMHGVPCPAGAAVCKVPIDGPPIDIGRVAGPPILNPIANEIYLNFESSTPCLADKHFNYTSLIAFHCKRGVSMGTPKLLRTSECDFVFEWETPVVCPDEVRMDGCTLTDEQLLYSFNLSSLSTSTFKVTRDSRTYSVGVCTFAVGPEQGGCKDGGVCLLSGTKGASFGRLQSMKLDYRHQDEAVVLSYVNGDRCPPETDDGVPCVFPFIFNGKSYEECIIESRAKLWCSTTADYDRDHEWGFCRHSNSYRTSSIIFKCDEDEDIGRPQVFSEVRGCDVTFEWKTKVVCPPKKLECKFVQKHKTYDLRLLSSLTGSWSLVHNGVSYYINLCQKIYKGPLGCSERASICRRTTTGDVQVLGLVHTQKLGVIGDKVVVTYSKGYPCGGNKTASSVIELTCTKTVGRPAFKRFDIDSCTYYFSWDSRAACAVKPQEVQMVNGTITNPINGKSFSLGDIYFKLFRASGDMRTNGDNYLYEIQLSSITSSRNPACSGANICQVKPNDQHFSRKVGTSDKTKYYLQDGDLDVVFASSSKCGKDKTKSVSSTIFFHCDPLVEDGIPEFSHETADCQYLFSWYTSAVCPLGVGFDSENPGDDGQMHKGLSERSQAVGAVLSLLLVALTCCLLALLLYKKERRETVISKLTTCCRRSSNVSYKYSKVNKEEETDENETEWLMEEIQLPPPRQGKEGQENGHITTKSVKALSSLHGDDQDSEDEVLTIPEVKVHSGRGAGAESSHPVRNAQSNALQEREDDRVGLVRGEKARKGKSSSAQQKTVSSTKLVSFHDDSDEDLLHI

With “ATB200: recombinant human acid α-glucosidase with high content of N-glycans bearing mono-M6P and bis-M6P, produced from GA-ATB200 CHO cell line” the “binding to CIMPR compared with LUMIZYME®” value (CIMPR [1]; CIMPR plate binding assay, FIG. 10A) was “bound to CIMPR significantly better than LUMIZYME®”, the Kd (CIMPR [1]; M6P receptor plate binding assays) was 2 to 4 nM and the “investigator-assessed relatedness of anaphylaxis event (both episodes)” value [2] was “definitely related”. For the same substance, the Tm ([3]; pH 5.2) was 67.3 °C, the Tm ([3]; pH 7.4) was 56.2 °C and the “increase of melting temperature (Tm) by addition of miglustat” value ([3]; pH 7.4) was ~10 °C. The Tm ([3]; pH 7.4 + 10 μM miglustat) was 61.6 °C, the Tm ([3]; pH 7.4 + 30 μM miglustat) was 62.9 °C and the Tm ([3]; pH 7.4 + 100 μM miglustat) was 66.0 °C. For the same substance, the “ATB200 AUC” value ([4]; Adult (10th-90th percentile)) was 1001 to 1924 µg·h/mL, the “ATB200 Cmax” value ([4]; Adult (10th-90th percentile)) was 223 to 363 µg/mL and the “ATB200 AUC” value ([4]; Adult (median)) was 1415 µg·h/mL. The “ATB200 Cmax” value ([4]; Adult (median)) was 294 µg/mL, the “ATB200 AUC” value ([4]; patient with atypical IOPD, 12Y5M, 46.5 kg, ATB200 20 mg/kg + AT2221 195 mg biweekly for 1 year) was 1257 µg·h/mL and the “ATB200 Cmax” value ([4]; patient with atypical IOPD, 12Y5M, 20 mg/kg) was 245 µg/mL. The “concentration that saturates cellular receptors” value ([5]; 16-hr incubation) was “about 20 nM”, the “uptake efficiency constant (Kuptake)” value ([5]; 16-hr incubation, extrapolated, FIG. 11C) was 2-3 nm and the “internalization into normal and Pompe fibroblast cells” value ([5]; FIGS. 11A-11B) was “internalized to a greater degree than the conventional rhGAA product LUMIZYME®”. For the same substance, the “Fibers with Autophagy Buildup” value (Gaa KO mice) was 40-64%*, the “Fibers with Normal or Near-normal Appearance” value (Gaa KO mice) was 36-60% and the “Lysosome Enlargement” value (Gaa KO mice; white gastrocnemius) was “dramatically decreased lysosome size; also recorded: Dramatic size”. For the same substance, the “rhGAA that bound to the CIMPR” value (CIMPR [6]) was “more than 70%”, the “rhGAA that bound to the CIMPR” value (CIMPR [6]; listed as ATB200 rhGAA) was ≥ 70% and the “AUC0-24, geometric LSM Ratio adolescents to adults” value ([7]; 90% CI (81.96, 96.88)) was 89.11. For the same substance, the “Cmax, geometric LSM Ratio adolescents to adults” value ([7]; 90% CI (82.51, 104.69)) was 92.94, the “individual predicted AUC0-24” value ([7]; adolescent Subject 1, 20 mg/kg, Week 52, 77.9 kg) was 1396 and the “individual predicted AUC0-24” value [7, 8] was 1315. The “individual predicted Cmax” value [7, 8] was 277, the “individual predicted AUC0-24” value [7, 9] was 1318 and the “individual predicted Cmax” value [7, 9] was 305. The “individual predicted AUC0-24” value [7, 10] was 1472, the “individual predicted Cmax” value [7, 10] was 294 and the “individual predicted AUC0-24” value [7, 11] was 1175. The “individual predicted Cmax” value [7, 11] was 240, the “individual predicted AUC0-24” value [7, 12] was 1047 and the “individual predicted Cmax” value [7, 12] was 222. The “individual predicted AUC0-24” value [7, 13] was 1269, the “individual predicted Cmax” value [7, 13] was 273 and the “individual predicted AUC0-24” value [7, 14] was 1138. For the same substance, the “individual predicted Cmax” value [7, 14] was 229, the “predicted AUC0-24 and Cmax for adolescents relative to adult 5th and 95th percentile range” value ([7]; adults N=100, adolescents N=8) was “well within the adult 5th and 95th percentile range” and the “AUC0-24, Geo Mean” value ([7]; Adolescents N=8) was 1259. For the same substance, the “AUC0-24, Mean” value ([7]; Adolescents N=8) was 1266, the “AUC0-24, Median” value ([7]; Adolescents N=8) was 1292 and the “AUC0-24, P5” value ([7]; Adolescents N=8) was 1079. The “AUC0-24, P95” value ([7]; Adolescents N=8) was 1446, the “AUC0-24, Geo Mean” value ([7]; Adults N=100) was 1413 and the “AUC0-24, Mean” value ([7]; Adults N=100) was 1461. The “AUC0-24, Median” value ([7]; Adults N=100) was 1433, the “AUC0-24, P5” value ([7]; Adults N=100) was 898 and the “AUC0-24, P95” value ([7]; Adults N=100) was 2162.
